The values that follow come from US20240116985A1 (published 2024).

Starred links: 1 amine or outer side, 2 acyl side, 3 side chain; linkers in the order of their positions; H or OH if unused. Positions of bridges follow the written chain, without caps; N, C: chain ends. Non-standard residues stand in square brackets, D forms with d. Primed or numbered codes have the meaning given here. *: point of attachment. PyrS2″ = (S)-3-amino-1-((pent-4-en-1-yloxy)carbonyl)pyrrolidine-3-carboxylic acid (stapling residue), C=CCCCOC(=O)N1CC[C@@](N[*:1])(C(=O)[*:2])C1; B5(4) = 2,2-bis(4-pentenyl)glycine = 2-amino-2-(pent-4-en-1-yl)hept-6-enoic acid (stitching residue), C=CCCCC(CCCC=C)(N[*:1])C(=O)[*:2]; B5(5) = 2,2-bis(4-pentenyl)glycine, 2-amino-2-(pent-4-en-1-yl)hept-6-enoic acid (stitching residue), C=CCCCC(CCCC=C)(N[*:1])C(=O)[*:2]; PyrS2 = (S)-3-amino-1-((pent-4-en-1-yloxy)carbonyl)pyrrolidine-3-carboxylic acid, C=CCCCOC(=O)N1CC[C@@](N[*:1])(C(=O)[*:2])C1; (2OxoPpz)GlnR = Glu side chain amide with 2-oxopiperazine (3-oxopiperazin-1-yl), O=C1CN(C(=O)CC[C@H](N[*:1])C(=O)[*:2])CCN1; B5(12) = 2-amino-2-(pent-4-en-1-yl)hept-6-enoic acid (two olefin side chains), C=CCCCC(CCCC=C)(N[*:1])C(=O)[*:2]; B5(28) = 2,2-bis(4-pentenyl)glycine, C=CCCCC(CCCC=C)(N[*:1])C(=O)[*:2]; Phe(3-COOH) = N[C@@H](Cc1cccc(C(=O)O)c1)C(=O)O; 2F3MeF = Cc1cccc(C[C@H](N[*:1])C(=O)[*:2])c1F; Phe(2-Cl) = N[C@@H](Cc1ccccc1Cl)C(=O)O; Bta = N[C@@H](Cc1csc2ccccc12)C(=O)O; Lys(iPr) = CC(C)NCCCC[C@H](N)C(=O)O; αAllylPro = C=CC[C@@]1(C(=O)O)CCCN1; isoindolineGlnR = not defined here; tBuAla = CC(C)(C)C[C@H](N)C(=O)O; 3Thi = N[C@@H](Cc1ccsc1)C(=O)O; Thr(ol) = C[C@@H](O)[C@H](N)CO; PyrS2(4) = not defined here; Prolinol = OC[C@@H]1CCCN1*

To fix the notation:
T1: B-cat-Halo (beta-catenin HaloTag NanoBRET construct expressed in HEK293 cells) (UniProt P35222 1-781)
T1 sequence (looked up): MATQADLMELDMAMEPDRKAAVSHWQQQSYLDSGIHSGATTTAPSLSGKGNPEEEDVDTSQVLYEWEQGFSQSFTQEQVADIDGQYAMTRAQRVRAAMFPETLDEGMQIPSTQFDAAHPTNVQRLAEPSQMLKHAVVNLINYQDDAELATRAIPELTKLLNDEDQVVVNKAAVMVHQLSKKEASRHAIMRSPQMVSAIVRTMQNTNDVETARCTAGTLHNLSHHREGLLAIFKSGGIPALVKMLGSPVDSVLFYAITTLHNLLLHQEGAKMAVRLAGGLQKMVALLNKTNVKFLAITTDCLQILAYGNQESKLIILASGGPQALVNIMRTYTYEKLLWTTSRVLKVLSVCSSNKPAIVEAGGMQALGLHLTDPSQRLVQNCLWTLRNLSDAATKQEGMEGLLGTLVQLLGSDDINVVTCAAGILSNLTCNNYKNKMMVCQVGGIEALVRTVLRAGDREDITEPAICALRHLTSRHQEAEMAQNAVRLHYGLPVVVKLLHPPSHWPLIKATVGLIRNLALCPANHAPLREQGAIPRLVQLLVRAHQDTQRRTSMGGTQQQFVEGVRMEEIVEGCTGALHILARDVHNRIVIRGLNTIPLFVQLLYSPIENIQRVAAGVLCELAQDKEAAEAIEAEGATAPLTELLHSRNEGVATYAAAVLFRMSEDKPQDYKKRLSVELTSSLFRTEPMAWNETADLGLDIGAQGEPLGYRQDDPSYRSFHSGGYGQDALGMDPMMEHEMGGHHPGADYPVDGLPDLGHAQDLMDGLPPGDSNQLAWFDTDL

T2: Bcat-Halo (UniProt P35222 1-781)
T2 sequence (looked up): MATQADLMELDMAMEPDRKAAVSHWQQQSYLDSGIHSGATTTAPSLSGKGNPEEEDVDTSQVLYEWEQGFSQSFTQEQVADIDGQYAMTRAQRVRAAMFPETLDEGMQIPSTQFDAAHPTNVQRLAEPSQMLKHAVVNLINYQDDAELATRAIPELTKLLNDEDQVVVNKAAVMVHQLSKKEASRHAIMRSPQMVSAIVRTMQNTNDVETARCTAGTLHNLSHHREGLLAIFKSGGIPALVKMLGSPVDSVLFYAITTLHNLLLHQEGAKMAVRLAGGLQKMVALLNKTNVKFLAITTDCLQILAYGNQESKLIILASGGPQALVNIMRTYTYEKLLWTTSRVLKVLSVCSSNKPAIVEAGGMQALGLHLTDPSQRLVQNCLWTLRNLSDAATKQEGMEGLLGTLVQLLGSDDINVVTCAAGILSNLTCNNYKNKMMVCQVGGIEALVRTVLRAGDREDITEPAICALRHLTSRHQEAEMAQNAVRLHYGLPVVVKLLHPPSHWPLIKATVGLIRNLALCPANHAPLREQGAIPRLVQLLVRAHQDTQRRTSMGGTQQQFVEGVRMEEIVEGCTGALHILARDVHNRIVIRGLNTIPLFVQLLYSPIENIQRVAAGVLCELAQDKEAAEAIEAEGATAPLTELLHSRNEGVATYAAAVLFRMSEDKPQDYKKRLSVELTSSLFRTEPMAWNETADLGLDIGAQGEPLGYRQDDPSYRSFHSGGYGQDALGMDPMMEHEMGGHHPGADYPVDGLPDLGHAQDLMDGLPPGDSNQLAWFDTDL

T3: beta-catenin, full-length (Uniprot ID P35222) (Homo sapiens (Human), UniProt P35222 2-781)
T3 construct: tags are not described; also called bCat; B-Catenin
T3 sequence: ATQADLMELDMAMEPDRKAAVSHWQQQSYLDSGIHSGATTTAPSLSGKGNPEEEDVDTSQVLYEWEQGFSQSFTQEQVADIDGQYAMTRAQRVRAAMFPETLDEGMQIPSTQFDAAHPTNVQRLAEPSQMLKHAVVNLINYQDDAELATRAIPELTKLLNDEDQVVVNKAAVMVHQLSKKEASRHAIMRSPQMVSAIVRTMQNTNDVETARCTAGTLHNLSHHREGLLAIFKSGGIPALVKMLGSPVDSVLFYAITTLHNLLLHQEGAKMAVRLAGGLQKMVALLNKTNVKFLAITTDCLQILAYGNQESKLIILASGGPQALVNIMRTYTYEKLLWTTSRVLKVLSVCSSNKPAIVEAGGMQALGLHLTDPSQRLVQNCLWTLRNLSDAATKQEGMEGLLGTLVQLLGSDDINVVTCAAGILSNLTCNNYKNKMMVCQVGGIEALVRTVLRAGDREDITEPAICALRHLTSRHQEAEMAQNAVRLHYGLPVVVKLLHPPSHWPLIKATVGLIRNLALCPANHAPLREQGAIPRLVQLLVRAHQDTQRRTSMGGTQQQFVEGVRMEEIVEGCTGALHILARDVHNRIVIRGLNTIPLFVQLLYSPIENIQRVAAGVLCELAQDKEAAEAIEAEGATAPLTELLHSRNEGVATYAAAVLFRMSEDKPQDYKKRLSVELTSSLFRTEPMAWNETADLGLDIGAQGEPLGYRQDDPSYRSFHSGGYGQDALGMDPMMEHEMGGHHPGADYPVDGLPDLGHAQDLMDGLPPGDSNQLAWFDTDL

B1: I-1906 (peptide)
peptide: Ac-[αAllylPro]D[tBuAla][B5(12)]D[Phe(3-COOH)]AAFL[PyrS2(4)][Phe(2-Cl)][Bta]S-Prolinol
modifications: staple 1-4, 4-11; not fully specified; printed as Ac-PL3-Asp-Npg-B5-Asp-3COOHF-Ala-Ala-Phe-Leu-PyrS2-2C1F-BztA-Ser-Prool; reading uncertain
B2: I-1905 (peptide)
peptide: Ac-[αAllylPro]D[tBuAla][B5(12)]D[Phe(3-COOH)]AAFL[PyrS2(4)][Phe(2-Cl)][Bta]S[Thr(ol)]
modifications: staple 1-4, 4-11; not fully specified; printed as Ac-PL3-Asp-Npg-B5-Asp-3COOHF-Ala-Ala-Phe-Leu-PyrS2-2C1F-BztA-Ser-Thro1; reading uncertain
B3: I-1911 (peptide)
peptide: Ac-[αAllylPro]D[tBuAla][B5(12)]D[Phe(3-COOH)]KAFL[PyrS2(4)][3Thi][Bta]F-NH2
modifications: staple 1-4, 4-11; not fully specified; printed as Ac-PL3-Asp-Npg-B5-Asp-3COOHF-Lys-Ala-Phe-Leu-PyrS2-3Thi-BztA-Phe-NH2; reading uncertain
B4: I-1912 (peptide)
peptide: Ac-[αAllylPro]D[tBuAla][B5(5)]D[Phe(3-COOH)]QAFL[PyrS2(4)][3Thi][Bta]F-NH2
modifications: staple 1-4, 4-11; not fully specified; printed as Ac-PL3-Asp-Npg-B5-Asp-3COOHF-Gln-Ala-Phe-Leu-PyrS2-3Thi-BztA-Phe-NH2; reading uncertain
B5: I-1909 (peptide)
peptide: Ac-[αAllylPro]D[tBuAla][B5(12)]D[Phe(3-COOH)][Lys(iPr)]AFL[PyrS2(4)][3Thi][Bta]F-NH2
modifications: staple 1-4, 4-11; not fully specified; printed as Ac-PL3-Asp-Npg-B5-Asp-3COOHF-iPrLys-Ala-Phe-Leu-PyrS2-3Thi-BztA-Phe-NH2; reading uncertain
B6: I-1910 (peptide)
peptide: Ac-[αAllylPro]D[tBuAla][B5(12)]D[Phe(3-COOH)]HAFL[PyrS2(4)][3Thi][Bta]F-NH2
modifications: staple 1-4, 4-11; not fully specified; printed as Ac-PL3-Asp-Npg-B5-Asp-3COOHF-His-Ala-Phe-Leu-PyrS2-3Thi-BztA-Phe-NH2; reading uncertain
B7: I-1904 (peptide)
peptide: Ac-[αAllylPro]D[tBuAla][B5(12)]D[Phe(3-COOH)]AAFL[PyrS2(4)][Phe(2-Cl)][Bta]N-NH2
modifications: staple 1-4, 4-11; not fully specified; printed as Ac-PL3-Asp-Npg-B5-Asp-3COOHF-Ala-Ala-Phe-Leu-PyrS2-2C1F-BztA-Asn-NH2; reading uncertain
B8: I-2316 (peptide)
peptide: Ac-[αAllylPro]D[tBuAla][B5(4)]D[Phe(3-COOH)][(TfePpz)GlnR]AFL[PyrS2(4)][2F3MeF][Bta]A-NH2
modifications: staple 1-4, 4-11; reading uncertain; also: printed as Ac-PL3-Asp-Npg-B5-Asp-3COOHF-[TfePpz]GlnR-Ala-Phe-Leu-PyrS2-2F3MeF-BztA-Ala-NH2
B9: I-289: Ac-PL3-Asp-Ala-B5-Asp-Asp-Ala-Ala-Phe-Val-S8-Phe-Trp-NH2 (peptide)
peptide: XDAXDDAAFVXFW
modifications: not fully specified; N-terminal Ac; PL3 at 1, B5 at 4, S8 at 11 (olefin-metathesis staples 1-4 and 4-11); C-terminal amide
notes: Stapled (stitched) peptide

In the first test the target is T1, B-cat-Halo (beta-catenin HaloTag …). As to the kind of experiment: cell-based or functional assay.
For the molecule B1, the “NanoBRET Abs IC50” value was 15.5 µM.

Turning to B2, the “NanoBRET Abs IC50” value was found to be 9.7 µM.

For the molecule B3, the “NanoBRET Abs IC50” value is above 20 µM.

Turning to B4, the “NanoBRET Abs IC50” value came out at 11.5 µM.

On to B5, for which the “NanoBRET Abs IC50” value is above 20 µM.

With B6, the “NanoBRET Abs IC50” value came out at 13.8 µM.

B7: the “NanoBRET Abs IC50” value was 4.2 µM.

The next test concerns the target T2, Bcat-Halo. The test is described as follows: cell-based or functional assay.
As for Ac-[αAllylPro]D[tBuAla][B5(4)]D[Phe(3-COOH)][(4Pippip)GlnR]AFL[PyrS2″][2F3MeF][Bta]A-NH2 (staple 1-4, 4-11) [I-2317], the “NanoBRET Abs IC50” value is 18.8 µM.

Consider Ac-[αAllylPro]D[tBuAla][B5(28)]D[Phe(3-COOH)][isoindolineGlnR]AFL[PyrS2][2F3MeF][Bta]A-NH2 (staple 1-4, 4-11; reading uncertain) [I-2320], for which the “NanoBRET Abs IC50” value is 2.7 µM.

With B8, the “NanoBRET Abs IC50” value amounted to 1.6 µM.

As for Ac-[αAllylPro]D[tBuAla][B5(4)]D[Phe(3-COOH)][(2OxoPpz)GlnR]AFL[PyrS2″][2F3MeF][Bta]A-NH2 (staple 1-4, 4-11) [I-2318], the “NanoBRET Abs IC50” value is 1.8 µM.

In a further test the target is T3, beta-catenin, full-length (Uniprot ID …). As to the kind of experiment: fluorescence polarization competition, displacement of 5FAM-TCF4 10-53 from full-length beta-catenin. The procedure: The plate was incubated protected from light for 60 minutes at 20° C. prior to read. Reads were performed on a CLARIOstar plate reader (BMG Labtech) in duplicate, and data were fitted to a 1:1 binding model with hill slope using an in-house script. All provided concentrations are final concentrations.
(Fluorescence polarisation rises when a labelled molecule tumbles more slowly, as on binding a larger partner.)
Usually IC50 stands for the concentration needed to halve the response being measured. A lower IC50 goes with greater potency. As to B9, the IC50 came to 5 µM. This lies in the single-digit micromolar range.
